The labels stand for the following.
B1: CPEB3 Ribozyme (parent)
chain: GGGGGCCACAGCAGAAGCGUUCACGUCGCGGCCCCUGUCAGAUUCUGGUGAAUCUGCGAAUUCUGCUGU

Variants of B1 are the subject of this data set. The data set is described as follows: self-cleavage, relative activity (ratio to wild type); higher = more cleavage; co-transcriptional.
With GGGGGCCACAGCAGAAGCGUUCACGUCGCGGCCCCCGUCAGAUUCUGGUGAAUCUGCGAAUUCUGCCGU [U36C U67C], the self-cleavage was 0.981.

With GGGGGCCACAGCAGAAGCGUUCACGUCGCGGCCCCCGUCAGAUUCUGGUGAAUCUGCGAAUUCUGCAGU [U36C U67A], the self-cleavage was 0.926.

Turning to GGGGGCCACAGCAGAAGCGUUCACGUCGCGGCCCCGGUCAGAUUCUGGUGAAUCUGCGAAUUCUUCUGU [U36G G65U], the self-cleavage was 0.0921.

Turning to GGGGGCCACAGCAGAAGCGUUCACGUCGCGGCCCCCGUCAGAUUCUGGUGAAUCUGCGAAGUCUGCUGU [U36C U61G], the self-cleavage was 0.601.

With GGGGGCCACAGCAGAAGCGUUCACGUCGCGGCCCCGGUCAGAUUCUGGUGAAUCUGCGAAUUCUGCUAU [U36G G68A], the self-cleavage was 0.214.

In the case of GGGGGCCACAGCAGAAGCGUUCACGUCGCGGCCCCGGUCAGAUUCUGGUGAAUCUGCGAAUUCUGCUCU [U36G G68C], the self-cleavage was determined as 0.436.

Consider GGGGGCCACAGCAGAAGCGUUCACGUCGCGGCCCCGGUCAGAUUCUGGUGAAUCUGCGAAUUCUGCUUU [U36G G68U], for which the self-cleavage was determined as 0.338.

On to GGGGGCCACAGCAGAAGCGUUCACGUCGCGGCCCCAGUCAGAUUCUGGUGAAUCUGCGAAAUCUGCUGU [U36A U61A], for which the self-cleavage turned out to be 0.137.

With GGGGGCCACAGCAGAAGCGUUCACGUCGCGGCCCCAGUCAGAUUCUGGUGAAUCUGCGAAGUCUGCUGU [U36A U61G], the self-cleavage was 0.147.

In the case of GGGGGCCACAGCAGAAGCGUUCACGUCGCGGCCCCCGUCAGAUUUUGGUGAAUCUGCGAAUUCUGCUGU [U36C C45U], the self-cleavage was determined as 0.926.

GGGGGCCACAGCAGAAGCGUUCACGUCGCGGCCCCGGUCUGAUUCUGGUGAAUCUGCGAAUUCUGCUGU [U36G A40U]: the self-cleavage turned out to be 0.259.

GGGGGCCACAGCAGAAGCGUUCACGUCGCGGCCCCCGUCAGAUUCUGGUGAAUCUGCGAAUUCUGUUGU [U36C C66U]: the self-cleavage is 0.891.

On to GGGGGCCACAGCAGAAGCGUUCACGUCGCGGCCCCGGUCAGAUUCUGGUGAAACUGCGAAUUCUGCUGU [U36G U53A], for which the self-cleavage was found to be 0.273.

For the variant GGGGGCCACAGCAGAAGCGUUCACGUCGCGGCCCCGGUCAGAUUCUGGUGAAGCUGCGAAUUCUGCUGU [U36G U53G], the self-cleavage worked out at 0.214.

For GGGGGCCACAGCAGAAGCGUUCACGUCGCGGCCCCCGUCAGAUUCUGGUGAAUCUGCGAAUCCUGCUGU [U36C U62C], the self-cleavage turned out to be 0.528.

Regarding GGGGGCCACAGCAGAAGCGUUCACGUCGCGGCCCCGGUCAGAUUCUGGUGAAUAUGCGAAUUCUGCUGU [U36G C54A], the self-cleavage is 0.186.

As to GGGGGCCACAGCAGAAGCGUUCACGUCGCGGCCCCGGUCAGAUUCUGGUGAAUGUGCGAAUUCUGCUGU [U36G C54G], the self-cleavage was 0.137.

As for GGGGGCCACAGCAGAAGCGUUCACGUCGCGGCCCCGGUCAGCUUCUGGUGAAUCUGCGAAUUCUGCUGU [U36G A42C], the self-cleavage was 0.221.

GGGGGCCACAGCAGAAGCGUUCACGUCGCGGCCCCGGUCAGUUUCUGGUGAAUCUGCGAAUUCUGCUGU [U36G A42U]: the self-cleavage is 0.256.

On to GGGGGCCACAGCAGAAGCGUUCACGUCGCGGCCCCAGUCAGAUUCUGGUGAAUCUGCGAAUCCUGCUGU [U36A U62C], for which the self-cleavage turned out to be 0.314.

Consider GGGGGCCACAGCAGAAGCGUUCACGUCGCGGCCCCAGUCAGAUUCUGGUGAAUCUGCGAAUUCCGCUGU [U36A U64C], for which the self-cleavage was 0.298.

Regarding GGGGGCCACAGCAGAAGCGUUCACGUCGCGGCCCCCGUCAGAUUCUGGUUAAUCUGCGAAUUCUGCUGU [U36C G50U], the self-cleavage was 0.893.

On to GGGGGCCACAGCAGAAGCGUUCACGUCGCGGCCCCCGUCAGAUUCUGGUAAAUCUGCGAAUUCUGCUGU [U36C G50A], for which the self-cleavage turned out to be 0.948.

GGGGGCCACAGCAGAAGCGUUCACGUCGCGGCCCCAGUCAGACUCUGGUGAAUCUGCGAAUUCUGCUGU [U36A U43C]: the self-cleavage is 0.186.

GGGGGCCACAGCAGAAGCGUUCACGUCGCGGCCCCCGUCAGAUUCUGGUGAAUCUGCGAAUUCUGCUUU [U36C G68U]: the self-cleavage was determined as 1.01.

Regarding GGGGGCCACAGCAGAAGCGUUCACGUCGCGGCCCCAGUCAGAUACUGGUGAAUCUGCGAAUUCUGCUGU [U36A U44A], the self-cleavage turned out to be 0.177.

Consider GGGGGCCACAGCAGAAGCGUUCACGUCGCGGCCCCAGUCAGAUGCUGGUGAAUCUGCGAAUUCUGCUGU [U36A U44G], for which the self-cleavage worked out at 0.21.

Consider GGGGGCCACAGCAGAAGCGUUCACGUCGCGGCCCCGGUCAGAUUCUGUUGAAUCUGCGAAUUCUGCUGU [U36G G48U], for which the self-cleavage was 0.196.

On to GGGGGCCACAGCAGAAGCGUUCACGUCGCGGCCCCGGUCAGAUUCUGGUGAAUCUGCGAAUUAUGCUGU [U36G C63A], for which the self-cleavage is 0.147.

Take GGGGGCCACAGCAGAAGCGUUCACGUCGCGGCCCCAGUCAGAUUCUGGUUAAUCUGCGAAUUCUGCUGU [U36A G50U]: the self-cleavage is 0.232.

Regarding GGGGGCCACAGCAGAAGCGUUCACGUCGCGGCCCCCGCCAGAUUCUGGUGAAUCUGCGAAUUCUGCUGU [U36C U38C], the self-cleavage worked out at 0.631.

For the variant GGGGGCCACAGCAGAAGCGUUCACGUCGCGGCCCCCGACAGAUUCUGGUGAAUCUGCGAAUUCUGCUGU [U36C U38A], the self-cleavage is 0.376.

Consider GGGGGCCACAGCAGAAGCGUUCACGUCGCGGCCCCAGUCAGAUUCUGGCGAAUCUGCGAAUUCUGCUGU [U36A U49C], for which the self-cleavage was 0.22.

For GGGGGCCACAGCAGAAGCGUUCACGUCGCGGCCCCGGUCAGAUUCUGGUGAAUCUGCGAGUUCUGCUGU [U36G A60G], the self-cleavage amounted to 0.209.

For GGGGGCCACAGCAGAAGCGUUCACGUCGCGGCCCCGGUCAGAUUCUGGUGAAUCUGCGACUUCUGCUGU [U36G A60C], the self-cleavage turned out to be 0.206.

For the variant GGGGGCCACAGCAGAAGCGUUCACGUCGCGGCCCCGGUCAGAUCCUGGUGAAUCUGCGAAUUCUGCUGU [U36G U44C], the self-cleavage came out at 0.118.

Turning to GGGGGCCACAGCAGAAGCGUUCACGUCGCGGCCCCCGUCAGAUUCUGGUGAAUCUGCGAAUUCUGCUGA [U36C U69A], the self-cleavage was determined as 0.996.

As to GGGGGCCACAGCAGAAGCGUUCACGUCGCGGCCCCAGUCAGAUUCUGGUGAAUCUGCGAAUUCUACUGU [U36A G65A], the self-cleavage came to 0.278.

GGGGGCCACAGCAGAAGCGUUCACGUCGCGGCCCCCGUCAGAUUCUGGUGGAUCUGCGAAUUCUGCUGU [U36C A51G]: the self-cleavage is 0.914.
